Results taken from patent US11299524B2, “KIF13B-derived peptide and method of inhibiting angiogenesis” (THE BOARD OF TRUSTEES OF THE UNIVERSITY OF ILLINOIS, priority 2016, dated 2022).
Non-standard residues stand in square brackets, D forms with d. Residues, ends and D or L forms follow the SMILES beside them. No end group written: not given here. d2Nal = N[C@H](Cc1ccc2ccccc2c1)C(=O)O; Aib = CC(C)(N)C(=O)O

What was measured:
[1] = tested on: vWF positive endothelial cells in tumors; experiment: delivery of DY633-labeled peptide to tumors in H460-tumor bearing SCID mice; assay type: in vivo, mouse; conditions: 10 mg/kg i.v. via tail vein, tumors dissected after 1 hour
Description: Delivery of the DUF2C5 peptide was tested using synthesized peptide covalently conjugated with DY633 fluorescent probe (Pierce). DY633-DUF2C5 (10 mg/kg body weight), DY633-CT23 or DY633 alone were injected intravenous (i.v.) via tail vein in H460-tumor bearing SCID mice. After 1 hour, tumors were dissected and flash frozen in OCT. Cryosections of tumors were co-stained with vWF to visualize endothelial cells in tumors.

[2] = cited from earlier work
HUVECs [3] = experiment: VEGF-induced capillary network formation on […] in vitro; assay type: cell-based, human; conditions: truncated mutant expressed by lentivirus in HUVECs
Description: (§1) Collagen invasion assay was performed as previously described (Kang, et al. (2011) J. Biol. Chem. 286:42017-26). In vitro capillary network formation on […] (BD Biosciences, San Jose, Calif.) and scratch wound healing assay were performed as previously described (Humtsoe, et al. (2010) Mol. Cell Biol. 30:1593-1606). Fibrin gel sprouting assay was performed as described by Nakatsu & Hughes ((2008) Methods Enzymol. 443:65-82). VEGF (2.2 nmol/L) stimulation was used for all in vitro angiogenesis assays. Transwell migration assay was performed as described by Kaplan, et al. ((2011) Free Radical Res. 45:1124-35) using VEGF (4.4 nmol/L), sphingosine-1-phosphate (S1P) (1 μmol/L), or basic fibroblast growth factor (bFGF) (50 ng/mL) in the presence or absence of kinesin-derived angiogenesis inhibitor (DUF2C5; residues 1238-1260 of KIF13B) at varying concentrations.
(§2) To test the bioactivity of the truncated mutant of KIF13B, DUF2C was expressed by lentivirus vector in HUVECs. […] The collagen invasion system (Kang, et al. (2011) J. Biol. Chem. 286:42017-42026) was used as another angiogenesis assay to test the peptides. After infection with control lentivirus, FLAG-DUF2C, or FLAG-DUF2, HUVECs were seeded on collagen gels. Cell invasion in response to proangiogenic stimuli SIP and VEGF in the gel was monitored for up to 24 hours.
Bioactivities in two-dimensional capillary network formation assay were assessed in HUVECs expressing KIF13B truncated mutants or vector controls. HUVECs were infected with lentiviruses encoding FLAG-C2, -C3, -C5, -C8, -C9, or vector.
Changes in VEGF-induced network formation assay were assessed in […] plugs. […] VEGF-induced EC sprouting was also determined by 3-dimensional culture of HUVECs on beads (Nakatsu & Hughes (2008) Methods Enzymol. 443:65-82).

VEGFR2 = VEGFR2 (Homo sapiens, UniProt P35968); experiment: pull-down binding assay with endogenous VEGFR2 from HUVEC lysates; design: endogenous in cells; host or cells: HUVEC; conditions: HUVEC lysate, anti-VEGFR2 western blot
Source text: Truncated mutants of KIF13B were expressed in BL21 (DE3) or Rosetta-gami and purified as previously described (Yamada, et al. (2014) J. Cell Sci. 127:4518-30; Yamada, et al. (2007) Biochemistry 46:10039-45).
Using recombinant proteins, the binding sites on KIF13B mediating the interaction with VEGFR2 were identified. KIF13B has a motor, forkhead-associated, membrane-associated guanylate kinase-binding stalk, 2 domains of unknown function (DUFs) (DUF3694), and a proline-rich and cytoskeleton-associated protein glycine-rich domain. The DUFs were identified from amino acid sequence similarity on the Pfam database. It has been previously shown that both domains of DUF3694 directly bind recombinant VEGFR2 in vitro (Yamada, et al. (2007) Biochemistry 46:10039-45). To define the specific peptide sequence inhibiting VEGFR2 trafficking, further analysis of the second DUF3694 domain (DUF2, residues 1112-1281 of KIF13B) was carried out. This was based on stability of this domain and a sequence distinct from binding sites for other cargoes of KIF13B (Horiguchi, et al. (2006) J. Cell Biol. 174:425-436; Hanada, et al. (2000) J. Biol. Chem. 275:28774-2878). DUF2 was divided into 3 parts, DUF2A (residues […]), DUF2B (residues 1168-1216), and DUF2C (residues 1217-1281) and each part was expressed as a recombinant protein in bacteria. VEGFR2 was abundantly expressed in HUVECs; thus, cell lysate from HUVECs was incubated with these recombinant proteins on beads, and VEGFR2 binding was determined using the anti-VEGFR2 antibody.
To identify the minimum binding site on VEGFR2, DUF2C was further truncated (DUF2C1-9) (FIG. 1). […] Stability of the C5 peptide was attributed to the 4-6 C-terminal residues. Accordingly, replacing these C-terminal residues with another a peptide, one or more post-translational modifications, one or more non-natural amino acid residues, a macromolecule such as PEG, or a combination thereof, is expected to stabilize the KAI peptide.
Initially, peptide interaction with VEGFR2 was confirmed using the pull-down assay.
To further define the KIF13B residues involved in binding to VEGFR2, truncations of the DUF2C5 peptide were tested for binding to VEGFR2 (Table 3) and compared to binding of DUF2C5 and peptides flanking this region (FIG. 1).

[4] = tested on: vessel formation of mouse ECs; experiment: […] plug vessel formation assay in mice with lentivirus; assay type: in vivo; conditions: lentivirus s.c. with MATRIGEL, VEGF, bFGF, heparin; C57BL mice
Description: Hematoxylin and eosin staining of […] plug was supplemented with 4.4 nmol/L VEGF, 50 ng/mL of basic fibroblast growth factor, 60 U of heparin, and 0.8×10^8 IFU lentivirus (vector control, DUF2, or DUF2C5, or CT) and injected s.c. in C57BL6 mice. Data are expressed as means±SEM. N=4, 4, 5, and 5 for vector control, DUF2, DUF2C5, and CT, respectively. *P<0.05 (one-way analysis of variance). CT, residues 1528-1826 of KIF13B.
For the […] plug assay used to assess vessel formation of mouse ECs, C57BL6 males (Jackson Laboratory) were used as previously described (Yang & Proweller (2011) J. Biol. Chem. 286:13741-53). […] supplemented with 4.4 nmol/1 VEGF, 50 ng/ml bFGF, 60 U heparin, and 0.8×10^8 IFU of lentivirus was injected subcutaneously into abdomen. Four days after injection, […] was collected.
To address the role of KIF13B in mediating angiogenesis in vivo, the […] plug assay was performed in mice using lentivirus expressing truncated mutants of KIF13B. High titer of lentivirus was injected with […] s.c. into C57BL mice in the presence of VEGF, bFGF, and heparin.

HUVECs [5] = experiment: collagen invasion assay; assay type: cell-based, human; conditions: lentiviral expression; S1P and VEGF; up to 24 hours
Description: as §1, §2

Chain of VEGFR2 (P35968 20-1356): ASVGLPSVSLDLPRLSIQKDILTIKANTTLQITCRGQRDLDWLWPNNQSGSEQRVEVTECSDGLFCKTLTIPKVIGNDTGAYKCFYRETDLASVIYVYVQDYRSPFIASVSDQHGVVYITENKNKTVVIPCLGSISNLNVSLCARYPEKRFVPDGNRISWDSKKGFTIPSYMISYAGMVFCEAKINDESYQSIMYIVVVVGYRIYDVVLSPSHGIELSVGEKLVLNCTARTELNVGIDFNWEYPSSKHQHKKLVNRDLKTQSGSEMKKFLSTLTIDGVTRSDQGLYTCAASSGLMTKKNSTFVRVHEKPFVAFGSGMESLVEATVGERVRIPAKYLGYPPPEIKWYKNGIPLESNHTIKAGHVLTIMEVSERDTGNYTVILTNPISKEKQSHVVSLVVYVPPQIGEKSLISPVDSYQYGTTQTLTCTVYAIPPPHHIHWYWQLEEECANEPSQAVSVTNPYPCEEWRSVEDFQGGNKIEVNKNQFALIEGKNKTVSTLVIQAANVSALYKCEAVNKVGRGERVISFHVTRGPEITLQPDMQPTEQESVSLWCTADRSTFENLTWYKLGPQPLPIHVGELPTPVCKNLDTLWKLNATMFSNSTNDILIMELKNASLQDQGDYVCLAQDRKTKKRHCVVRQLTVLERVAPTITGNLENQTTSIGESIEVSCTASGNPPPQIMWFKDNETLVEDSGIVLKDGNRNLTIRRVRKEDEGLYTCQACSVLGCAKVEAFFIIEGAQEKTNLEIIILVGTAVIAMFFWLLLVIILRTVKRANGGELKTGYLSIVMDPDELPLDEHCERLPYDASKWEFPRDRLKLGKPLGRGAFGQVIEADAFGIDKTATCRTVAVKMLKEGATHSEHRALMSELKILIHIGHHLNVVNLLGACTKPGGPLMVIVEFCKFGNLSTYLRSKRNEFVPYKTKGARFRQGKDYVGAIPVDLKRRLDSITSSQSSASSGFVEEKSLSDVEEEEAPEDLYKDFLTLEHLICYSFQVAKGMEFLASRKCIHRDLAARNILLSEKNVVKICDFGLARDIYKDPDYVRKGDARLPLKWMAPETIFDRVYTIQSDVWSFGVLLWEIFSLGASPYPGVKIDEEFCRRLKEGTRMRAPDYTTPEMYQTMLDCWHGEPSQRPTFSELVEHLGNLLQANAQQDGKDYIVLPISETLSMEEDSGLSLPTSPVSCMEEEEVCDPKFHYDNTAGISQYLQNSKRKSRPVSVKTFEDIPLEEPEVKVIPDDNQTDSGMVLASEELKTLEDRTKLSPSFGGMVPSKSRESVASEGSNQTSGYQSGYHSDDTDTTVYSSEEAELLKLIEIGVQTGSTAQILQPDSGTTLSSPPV

## CC[N+](CCCS(=O)(=O)[O-])=c1ccc2c(C=CC=C3N(CCCCCC(=O)O)c4ccc(S(=O)(=O)[O-])cc4C3(C)C)cc(C(C)(C)C)oc-2c1.[Na+] [DY633]
[1]
  delivery into tumor sites (DY633 label in tumor cryosections): not detected

## CC(C)(N)C(=O)N[C@@H](Cc1c[nH]cn1)C(=O)N[C@H](Cc1ccc2ccccc2c1)C(=O)N[C@H](Cc1ccccc1)C(=O)N[C@@H](CCCCN)C(N)=O [Ipamorelin] (H-[Aib]H[d2Nal][dF]K-NH2)
[2]; in humans
  terminal half-life: about 2 hours

## NC(=O)CC[C@@H]1NC(=O)[C@H](Cc2ccccc2)NC(=O)[C@H](Cc2ccc(O)cc2)NC(=O)[C@@H](N)CSSC[C@@H](C(=O)N2CCC[C@H]2C(=O)N[C@@H](CCCN=C(N)N)C(=O)NCC(N)=O)NC(=O)[C@H](CC(N)=O)NC1=O [vasopressin]
[2]; in humans
  half-life: 0.167 to 0.583 h

## C2: truncated KIF13B domain, residues 1221-1260, recombinant or lentivirus-expressed (FLAG-C2) (VKAEASWDSAVHGCPQLSRGTPVDERLFLIVRVTVQLSHP; not fully specified (N-terminus); also: FLAG tag; UniProt Q9NQT8 1221-1260, looked up, fragment)
HUVECs [3]
  VEGF-induced capillary network formation: significantly reduced
VEGFR2
  VEGFR2 binding: bind VEGFR2

## DUF2A: residues 1111-1167 of KIF13B, recombinant protein (QKLVSKRDKTEDDADREAQLLEMRLTLTEERNAVMVPSAGSGIPGAPAEWTPVPGME; left off: small tags and cut ends)
VEGFR2
  VEGFR2 binding: failed to bind

## DUF2B: residues 1168-1216 of KIF13B, recombinant protein (THIPVIFLDLNADDFSSQDNLDDPEAGGWDATLTGEEEEEFFELQIVKQ; left off: small tags and cut ends)
VEGFR2
  VEGFR2 binding: failed to bind

## PQLSRGTPVDERLFLIVR (listed as Homo sapiens) [DUF2C9, KIF13B residues 1235-1252]
HUVECs [3]
  VEGF-induced capillary network formation: did not significantly reduce
VEGFR2
  VEGFR2 binding: weakly bind VEGFR2
VEGFR2; listed as C9
  VEGFR2 binding: partial or unstable binding

## SRGTPVDERLFLIVRVT (listed as Homo sapiens) [DUF2C6, KIF13B residues 1238-1254]
VEGFR2
  VEGFR2 binding: partial or unstable binding

## TPVDERLFLIVRVTVQ (listed as Homo sapiens) [SEQ ID NO:3, Homo sapiens KAI peptide]
VEGFR2
  VEGFR2 binding: sufficient for VEGFR2 binding

## TPVDERLFLIVRVTVQLSHPADMQLVLRKR . . . QGF (listed as Homo sapiens) [DUF2C3, KIF13B residues 1241-1281]
HUVECs [3]
  VEGF-induced capillary network formation: significantly reduced
VEGFR2
  VEGFR2 binding: bind VEGFR2

## VRVTVQLSHPADMQLVLR (listed as Homo sapiens) [DUF2C8, KIF13B residues 1251-1268]
HUVECs [3]
  VEGF-induced capillary network formation: did not significantly reduce
VEGFR2
  VEGFR2 binding: weakly bind VEGFR2
VEGFR2; listed as C8
  VEGFR2 binding: partial or unstable binding

## albiglutide
[2]; in humans
  half-life: 140 to 170 h

## peginesatide
[2]; in healthy volunteers
  elimination half-life: 18.9 h

B1: DUF2: second DUF3694 domain, residues 1112-1281 of KIF13B (protein, UniProt Q9NQT8 1112-1281, looked up, fragment)
chain: KLVSKRDKTEDDADREAQLLEMRLTLTEERNAVMVPSAGSGIPGAPAEWTPVPGMETHIPVIFLDLNADDFSSQDNLDDPEAGGWDATLTGEEEEEFFELQIVKQHDGEVKAEASWDSAVHGCPQLSRGTPVDERLFLIVRVTVQLSHPADMQLVLRKRICVNVHGRQGF
[4]
  number of vessels in MATRIGEL plug: significantly reduced
HUVECs [5]
  distance of invasion: significantly reduced
  invasion of HUVECs into collagen gel: significantly reduced
  number of lumen formed: significantly reduced
  thickness of invading sprouts: not different among the groups

B2: DUF2C: residues 1217-1281 of KIF13B, recombinant protein (protein)
chain: HDGEVKAEASWDSAVHGCPQLSRGTPVDERLFLIVRVTVQLSHPADMQLVLRKRICVNVHGRQGF
modifications: left off: small tags and cut ends
notes: residues 1217-1281 of KIF13B, recombinant protein
HUVECs [3]
  VEGF-induced capillary network formation: sufficient to reduce
HUVECs [5]
  distance of invasion: significantly reduced
  invasion of HUVECs into collagen gel: significantly reduced
  number of lumen formed: significantly reduced
  thickness of invading sprouts: not different among the groups
VEGFR2
  VEGFR2 binding: specifically binds

B3: CT: C-terminus region of KIF13B (residues 1528 to 1826), negative control (protein, UniProt Q9NQT8 1528-1826, looked up, fragment)
chain: ICDKPAKVPSPPPVIAVTAVTPAPEAQDGPPSPLSEASSGYFSHSVSTATLSDALGPGLDAAAPPGSMPTAPEAEPEAPISHPPPPTAVPAEEPPGPQQLVSPGRERPDLEAPAPGSPFRVRRVRASELRSFSRMLAGDPGCSPGAEGNAPAPGAGGQALASDSEEADEVPEWLREGEFVTVGAHKTGVVRYVGPADFQEGTWVGVELDLPSGKNDGSIGGKQYFRCNPGYGLLVRPSRVRRATGPVRRRSTGLRLGAPEARRSATLSGSATNLASLTAALAKADRSHKNPENRKSWAS
[4]
  number of vessels in MATRIGEL plug: no significant effect
HUVECs [3]
  VEGF-induced capillary network formation: formed capillary networks
VEGFR2
  VEGFR2 binding: does not bind
